According to PMC9942873 (Immunity, 2023):
Substitutions are numbered along the chain they refer to.

B1: RUPA-48 (antibody, V domains shown)
VH: EVQLVESGGGLVQPGRSLRLSCAASGFSFDDHAMHWVRQAPGKGLEWVSGISWNSGNIGYADSVKGRFTISRDNAKNSLYLQMNSLRPEDTALYHCAKDGGYCSGIRCYHLRGMDVWGQGTTVTVSS
VL: EIVLTQSPATLSLSPGERATLSCRASQSVTNYLAWYQQKPGQAPRLLIYDASNRATGIPARFSGSGSGTDFTLTISSLEPEDFGVYYCQQRSSWPPYTFGQGTKLEIK
notes: human IgG1; source: recombinant human IgG1, 293T (Protein A purified) or GenScript
B2: RUPA-67 (antibody, V domains shown)
VH: QVQLLESGPGLVKPSETLSLTCTVSGASISTSYWSWIRQPAGKGLEWIGRFHISESSNYNPSLKSRLTLSADTSKNQVSLRLSSVTAADTAVYYCARDVSPEECVSTKCYRRPGYMDVWGKGTSVTVSS
VL: DIQMTQSPSSLSASVGDRVTITCRASQSIRNYLNWYLQKPGKAPKLLIFGASSLQSGVPSRFSGSGSGTDFTLTISSLLPEDFATYYCQQSYTTPRTFGQGTKVEIK
notes: as for B1
B3: RUPA-51 (antibody, V domains shown)
VH: QVQLVQPGAEVKKPGASVKVSCKASGYIFSTYGISWVRQAPGQGLEWMGWTSSYSDDTNYAQKFQDRVTMTTDTSTSTAYMELRSLRSDDTAVYYCARGGDRGDGPRFYYYGLDVWGQGTTVTVSS
VL: EIVLTQSPGTLSLSPGERATLSCRASQSLYNSYLAWYQQKPGQAPRLLIYGASSRATGIPGRFSGSGSGTDFSLTISRLEPEDFAVYYCSLYGRSSWTFGQGTKVEIK
notes: as for B1
B4: RUPA-94 (antibody, V domains shown)
VH: QVQLRESGPGLVKPSETLSLTCSVSGGSITSSPYYWAWIRQPPGKGLEWIGSIYYSGGAYYNPSLKSRVTMSVDTSKNQFSLKVNSVTAADTAVYYCARRPNPGFWGGGYYFDYWGQGTLVTVSS
VL: QSALTQPASVSGSPGQSITISCTGSSSDVGSYNLVSWYQHHPGKAPKLMISEVSKRPSGVSDRFSGSKSGNTASLTISGLQAEDEADYYCCSYADSSTRNYVFGTGTKVTVL
notes: as for B1
B5: RUPA-130 (antibody, V domains shown)
VH: EVQLVESGGGLVKPGGSLRLSCEASGFTFRNAWMSWVRQAPGKGLEWVGRIKSYIDGGTADYAAPVKGRFSISRDDSKNTLFVQMNSLKTEDTAVYYCTTDSWAGEVGNYYFDNWGQGTLVTVSS
VL: QSALTQPASVSGSPGQSITISCTGTSSDVGSYNFVSWYQQHPGKAPKLMIYQVTWRPSGVSNRFSGSKSGNTASLTISGLQAEDEADYYCCSYSKSSTYVFGTGTKVSVL
notes: source: recombinant human IgG1, 293T (Protein A purified) or GenScript
B6: RUPA-141 (antibody, V domains shown)
VH: EVQLVESGGGLVQPGESLRLSCAASGFTFNTYWMTWVRQAPGKGLEWVANINQDGSQKNYVDSVKGRFTVSRDNAKKSLFLQMNSLRAEDTAVYYCARDNGARYSGVWYDGWYDAFDIWGRGTVLTVSS
VL: AIQMTQSPSSLSASVGDRVTITCRASQGIKNDLGWYQQKTGKAPKLLIYAASSLQSGVPSRFSGSGSGTDFTLTISSLQPEDFATYYCLQDYNYPRTFGQGTKVEIK
notes: as for B5
B7: RUPA-156 (antibody, V domains shown)
VH: EVQLVESGGGLVQPGGSLRLSCVVSGFTFSRYSMYWVRQAPGKGPEWVSYIDSTGTTIYYADSVKGRFTISRDNAKSSLSLQMSSLRDDDRGVYYCARDGRKDSGSFLDHWGQGTLVTVSS
VL: DIQMTQSPSSLSASVGDRVTITCRASQSISEWLAWYQQKPGKAPRLLIYQASSLQSGVPSRFSGSGSGTEFTLTISSLQSDDFATYYCQQFDTYWTFGQGTKVEIK
notes: as for B1
B8: RUPA-122 (antibody, V domains shown)
VH: QITLKESGPTLVKPTQTLMLTCSVSGFSLSNNGVAVGWVRQPPGKALEWLALIYWNDDSFYRPSLKSRLTINKDTSKNQVVLTMTNVAPVDTATYFCARTMKKITMIRGVPYEGGVQGFDPWGPGILVTVSS
VL: DIQMTQSPSSLSASVGDRVTITCRASQGIRDDLAWYQQKPGKAPERLIYAASSLQSGVPSRFSGSGYGTEFTLTISSLQPEDFATYYCQQYSGYFTFGGGTKVEIN
notes: as for B1
B9: RUPA-114 (antibody, V domains shown)
VH: QVYLVQSGAEVKKPGASVKVSCKASGYDFTSYGIAWVRQAPGQGLEWMGWIGGYDDKTDYAQNLQGRFTVTTDTSTSTAYMELRSLKSDDTAVYYCARGGDRGDGLRFYYFALDVWGQGTTVTVSS
VL: B3 VL with E1D, T5A, R18G, L29I, Q39H, G61D, S73T, S90Q
notes: as for B1
B10: RUPA-158 (antibody, V domains shown)
VH: B3 VH with D89G, F108Y
VL: B3 VL with G9S
notes: as for B1
B11: RUPA-116 (antibody, V domains shown)
VH: QVQLQQWGAGLLKPSETLSLTCVVYGGSFSDYYWSWVRQPPGKGLEWIGEVNHSGTTNYNPSLKSRLTISVDTSKNQISLRLNSLTAADTAVYYCARRSSGYYRQSRYTGWFDPWGRGTLVTVSS
VL: EIVMTQSPATLSVSPGERATLSCRASQSITSNLAWYQQKPGQAPRLLIYGASTRATGIPARFSGSGSGTEFTLTISSLQSDDFALYYCQQYNNWPGLTFGGGTKVEIK
notes: as for B1
B12: RUPA-155 (antibody, V domains shown)
VH: QVQLQQWGAGLLKPSETLSLTCAVEGDSLGDYYWSWIRQPPGKGLEWIGDINHSGTTNYIPSLKSRVTISVDSSRNQFSLRLNFVTAADTATYFCARRASGWYRQSRYTGWFDPWGQGTLVTVSS
VL: B11 VL with Q27H, T30N, L33V, S80T, D81E, L85V, T98S
notes: as for B1
B13: RUPA-119 (antibody, V domains shown)
VH: QVRLQQWGAGLLKPSETLSLTCGVSGGSFSDYYWTWIRQPPGKGLEWIGDISHSANTNYNESLQSRLTISVDTSKTQFSLRLASVTAADTALYFCARRSSGWYRQSRYTGWFDPWGQGTLVTVSS
VL: B11 VL with T56A, S77T, D81E, L85V, K104T
notes: as for B1
B14: RUPA-164 (antibody, V domains shown)
VH: QVQLQESGPGLVKPSETLSLTCSVSGGSMTSFYWSWIRQPPGKGLEWIGYVYYNGTTNYKPSLKSRVTISVDMSKNQVSLKLSSVTAADTAVYYCARDRVVGSYYYGMDVWGQGTTVTVSS
VL: EIVLTQPPVSLSLSPGEGATLSCRASQSVSSSYLAWYQQKPGQAPRLLMYSASRRATGIPDRFTGSGSGTDFTLTISRLEPEDFALYYCQHYGGSPRETFGQGTKVEIK
notes: as for B1
B15: RUPA-165 (antibody, V domains shown)
VH: VQLQQWGAGLLKPSETLSLTCLVNGGSFSDYYWSWIRQPPGRGLEWIGDVNHSGTTNHRPSLQSRVTLSLDMSKNQFSLKLTSVTAADTAVYFCARRSSGYYRGSRYTGWLDPWGQGTLVTVSS
VL: IVMTQSPLSLSVSPGERATLSCRASQTITRNLAWYQQKPGQAPRLLIYGASTRAPDIPARFSASGSGTEFTLTISSLQSEDFALYYCQQYNNWPGLTFGGGTKVEIK
notes: as for B1

target: T1, recombinant full-length Pfs48/45 (Plasmodium falciparum 3D7, UniProt Q8I6T1); test: ELISA; conditions: both partners purified
T1 sequence (Q8I6T1 28-428): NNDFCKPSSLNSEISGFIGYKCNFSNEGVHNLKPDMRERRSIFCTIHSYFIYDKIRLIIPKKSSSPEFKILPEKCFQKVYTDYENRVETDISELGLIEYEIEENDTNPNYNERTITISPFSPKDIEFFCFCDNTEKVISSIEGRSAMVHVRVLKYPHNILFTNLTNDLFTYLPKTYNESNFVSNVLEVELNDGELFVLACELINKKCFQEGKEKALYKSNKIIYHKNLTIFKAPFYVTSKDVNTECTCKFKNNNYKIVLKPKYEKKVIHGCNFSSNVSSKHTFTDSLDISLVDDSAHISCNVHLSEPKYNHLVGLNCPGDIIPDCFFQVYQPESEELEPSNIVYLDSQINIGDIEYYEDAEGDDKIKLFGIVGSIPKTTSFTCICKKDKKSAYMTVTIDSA

Binder | binding result
B1 | binds
B2 | binds
B3 | binds

target: T1, recombinant full-length Pfs48/45; test: ELISA; conditions: both partners purified; remark: another data set of the same source

Binder | binding result
B4 | binds
B5 | binds
B6 | binds
B7 | binds
B8 | binds
B9 | binds
B10 | binds
B11 | binds
B12 | binds
B13 | binds
B14 | binds
B15 | binds

target: Pfs48/45 D1-2 (Plasmodium falciparum 3D7, UniProt Q8I6T1); test: ELISA; conditions: both partners purified
Sequence (Q8I6T1 28-289): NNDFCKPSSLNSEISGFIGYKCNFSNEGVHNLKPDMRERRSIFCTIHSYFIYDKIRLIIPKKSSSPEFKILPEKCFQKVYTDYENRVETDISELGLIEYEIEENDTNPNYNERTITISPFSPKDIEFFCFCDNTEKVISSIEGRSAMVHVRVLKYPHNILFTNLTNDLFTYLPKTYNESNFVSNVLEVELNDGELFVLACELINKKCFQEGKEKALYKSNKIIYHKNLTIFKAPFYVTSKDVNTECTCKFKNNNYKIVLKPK

Binder | binding result
B4 | binds
B5 | binds
B7 | binds
B8 | binds
B9 | binds
B11 | binds
B12 | binds
B13 | binds
B14 | binds
B15 | binds
